Where no end group is shown, it is not given here.
Key:
[1] = molecular target: T1, Anti-CD28 Fab (SEQ ID NOs: 696, 697); assay: phage binding ELISA on captured anti-CD28 Fab; competitor: CD28 antigen
T1 construct: In the phage ELISA the Fab was biotinylated and captured on neutravidin coated plates
T1 sequence (VH, as listed by the source, chain 1 of 2): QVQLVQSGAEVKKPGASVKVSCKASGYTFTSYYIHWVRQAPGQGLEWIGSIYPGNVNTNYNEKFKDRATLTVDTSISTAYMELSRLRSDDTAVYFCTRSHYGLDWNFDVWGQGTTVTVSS
T1 sequence (VL, as listed by the source, chain 2 of 2): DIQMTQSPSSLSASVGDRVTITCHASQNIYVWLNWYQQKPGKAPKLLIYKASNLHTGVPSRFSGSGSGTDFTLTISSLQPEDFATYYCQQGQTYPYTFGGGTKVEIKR
Procedure: (§1) After panning, phage infected bacteria were plated out and colonies picked into 96 well blocks. Clonal phage was then amplified and separated from bacterial cells via centrifugation.
(§2) Clonal phage were harvested as crude supematants and screened via standard ELISAs. […] Prior to the addition of clonal phage, wells were incubated with blocking buffer and CD28 antigen or blocking buffer alone. Without washing or aspirating, clonal phage supematants were then added to the wells and incubated for a short time. Wells were then washed followed by detection of bound phage using a horse radish conjugated anti-M13 antibody. Clonal phage of interest were then sent for sequence analysis.

[2] = molecular target: T1, Anti-CD28 Fab (SEQ ID NOs: 696, 697); assay: phage binding ELISA; biotinylated anti-CD28 Fab on neutravidin plate, bound phage detected with anti-M13 HRP;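 note: crude supernatants of clonal phage screened, wells pretreated with blocking buffer with or without CD28 antigen before brief phage incubation, washed, then bound phage detected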
Procedure: as §1, §2

[3] = molecular target: T2, Anti-CD28 Fab (SEQ ID NOs: 696, 697); assay: phage binding ELISA, biotinylated Fab on neutravidin plate, anti-M13 HRP detection;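 note: crude clonal phage supernatants added to Fab-coated wells pretreated with CD28 antigen or with blocking buffer only, bound phage measured after washing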
T2 construct: Biotinylated and captured on neutravidin coated plates in the phage ELISA
T2 sequence (VH, as listed by the source, chain 1 of 2): as the sequence (VH, as listed by the source, chain 1 of 2) above
T2 sequence (VL, as listed by the source, chain 2 of 2): as the sequence (VL, as listed by the source, chain 2 of 2) above
Procedure: as §1, §2

[4] = molecular target: T2, Anti-CD28 Fab (SEQ ID NOs: 696, 697); assay: phage binding ELISA, Fab on plate pre-incubated with CD28 antigen as competitor
Procedure: as §1, §2

[5] = molecular target: T3, Anti-CD28 Fab (SEQ ID NOs: 696, 697); assay: phage ELISA on anti-CD28 Fab plates; competitor CD28 antigen pre-incubated in the wells
T3 construct: Biotinylated and captured on neutravidin coated plates in the phage ELISA
T3 sequence (VH, as listed by the source, chain 1 of 2): as the sequence (VH, as listed by the source, chain 1 of 2) above
T3 sequence (VL, as listed by the source, chain 2 of 2): as the sequence (VL, as listed by the source, chain 2 of 2) above
Procedure: as §1, §2

[6] = molecular target: T3, Anti-CD28 Fab (SEQ ID NOs: 696, 697); assay: phage ELISA; biotinylated anti-CD28 Fab on neutravidin plates, bound phage detected with anti-M13 HRP
Procedure: as §1, §2

[7] = molecular target: Anti-CD28 Fab (SEQ ID NOs: 696, 697); assay: phage binding ELISA; biotinylated anti-CD28 Fab on neutravidin plate, clonal phage supernatant, anti-M13 HRP;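 note: crude clonal phage supernatants screened after wells were preincubated either with CD28 antigen in blocking buffer or with blocking buffer only, phage added without washing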
Target sequence in this assay (VH, as listed by the source, chain 1 of 2): as the sequence (VH, as listed by the source, chain 1 of 2) above
Target sequence in this assay (VL, as listed by the source, chain 2 of 2): as the sequence (VL, as listed by the source, chain 2 of 2) above
Procedure: as §1, §2

[8] = molecular target: Anti-CD28 Fab (SEQ ID NOs: 696, 697); assay: phage binding ELISA; captured anti-CD28 Fab pre-incubated with CD28 antigen as competitor, anti-M13 HRP
Target sequence in this assay (VH, as listed by the source, chain 1 of 2): as the sequence (VH, as listed by the source, chain 1 of 2) above
Target sequence in this assay (VL, as listed by the source, chain 2 of 2): as the sequence (VL, as listed by the source, chain 2 of 2) above
Procedure: as §1, §2

Binder | Anti-CD28 Fab signal in the presence of CD28 [1] | Anti-CD28 Fab signal [2] | Anti-CD28 Fab (SEQ ID NOs: 696, 697) signal [3] | Anti-CD28 Fab signal in the presence of CD28 [4] | also measured
YCEGHSQEYMSKCL (cysteine pairing not given here; also: displayed on phage by fusion to pIII, pIII and linker sequence not given here) [Phage-573] | 0.07 | 2.26 | – | – | –
YCDGHAAEYMAKCL (cysteine pairing not given here; also: displayed on phage by fusion to pIII, pIII and linker sequence not given here) [Phage-572] | 0.13 | 2.26 | – | – | –
YCEGHSAQYMSKCL (Clonal phage of the Peptide-87 library, tested as crude supernatant; not shown: pIII of the bacteriophage to which the peptide is fused) [Phage-557] | – | – | 2.29 | 0.07 | –
YCEGHAAEYMEKCL (Clonal phage of the Peptide-87 library, tested as crude supernatant; not shown: pIII of the bacteriophage to which the peptide is fused) [Phage-556] | – | – | 2.3 | 0.11 | –
YCDGHSQEYMMKCL (Clonal phage of the Peptide-87 library, tested as crude supernatant; not shown: pIII of the bacteriophage to which the peptide is fused) [Phage-563] | – | – | 2.28 | 0.06 | –
YCAGHSPEHMWKCL [Phage-550] | – | – | – | – | Phage binding ELISA, Anti-CD28 Fab signal in the presence of CD28 [5]: 0.06; Phage binding ELISA, Anti-CD28 Fab signal [6]: 2.3
YCEGHSEEYISKCL [Phage-551] | – | – | – | – | Phage binding ELISA, Anti-CD28 Fab signal in the presence of CD28 [5]: 0.08; Phage binding ELISA, Anti-CD28 Fab signal [6]: 2.3
YCEGHAWEYMAKCL [Phage-580] | – | – | – | – | Anti-CD28 Fab (SEQ ID NOs: 696, 697) signal [7]: 2.24; Anti-CD28 Fab signal in the presence of CD28 [8]: 0.07
YCEGHSPLYMWKCL (cysteine pairing not given here; also: displayed on phage by fusion to pIII, pIII and linker sequence not given here) [Phage-577] | 0.06 | 2.25 | – | – | –
YCAGHLPEYMEKCL [Phage-579] | – | – | – | – | Anti-CD28 Fab (SEQ ID NOs: 696, 697) signal [7]: 2.24; Anti-CD28 Fab signal in the presence of CD28 [8]: 0.12
YCDGHSTEYLWKCL (cysteine pairing not given here; also: displayed on phage by fusion to pIII, pIII and linker sequence not given here) [Phage-570] | 0.06 | 2.26 | – | – | –
YCDGHLSEYMEKCL (cysteine pairing not given here; also: displayed on phage by fusion to pIII, pIII and linker sequence not given here) [Phage-576] | 0.08 | 2.25 | – | – | –
YCDGHAPQYMRKCL (Clonal phage of the Peptide-87 library, tested as crude supernatant; not shown: pIII of the bacteriophage to which the peptide is fused) [Phage-553] | – | – | 2.3 | 0.07 | –
YCDGHAKEYMWKCL (Clonal phage of the Peptide-87 library, tested as crude supernatant; not shown: pIII of the bacteriophage to which the peptide is fused) [Phage-554] | – | – | 2.3 | 0.07 | –
YCSGHLPQYMQKCL (Clonal phage of the Peptide-87 library, tested as crude supernatant; not shown: pIII of the bacteriophage to which the peptide is fused) [Phage-564] | – | – | 2.28 | 0.08 | –
YCQGHAPEYMAKCL (Clonal phage of the Peptide-87 library, tested as crude supernatant; not shown: pIII of the bacteriophage to which the peptide is fused) [Phage-562] | – | – | 2.28 | 0.1 | –
YCDGHLPMYMMKCL (Clonal phage of the Peptide-87 library, tested as crude supernatant; not shown: pIII of the bacteriophage to which the peptide is fused) [Phage-561] | – | – | 2.28 | 0.14 | –

Binder | Anti-CD28 Fab signal in the presence of CD28 [1] | Anti-CD28 Fab signal [2] | Anti-CD28 Fab (SEQ ID NOs: 696, 697) signal [3] | Anti-CD28 Fab signal in the presence of CD28 [4] | also measured
YCEGHSPEYMEKCL (cysteine pairing not given here; also: displayed on phage by fusion to pIII, pIII and linker sequence not given here) [Phage-578] | 0.07 | 2.24 | – | – | –
YCDGHSSEYMAKCL (Clonal phage of the Peptide-87 library, tested as crude supernatant; not shown: pIII of the bacteriophage to which the peptide is fused) [Phage-565] | – | – | 2.28 | 0.09 | –
YCEGHLPLYMWKCL [Phage-548] | – | – | – | – | Phage binding ELISA, Anti-CD28 Fab signal in the presence of CD28 [5]: 0.07; Phage binding ELISA, Anti-CD28 Fab signal [6]: 2.3
YCEGHLGIYMYKCL (cysteine pairing not given here; also: displayed on phage by fusion to pIII, pIII and linker sequence not given here) [Phage-571] | 0.14 | 2.26 | – | – | –
YCDGHLPEYLWKCL (cysteine pairing not given here; also: displayed on phage by fusion to pIII, pIII and linker sequence not given here) [Phage-574] | 0.13 | 2.26 | – | – | –
YCDGHLPIYMAKCL [Phage-552] | – | – | – | – | Phage binding ELISA, Anti-CD28 Fab signal in the presence of CD28 [5]: 0.14; Phage binding ELISA, Anti-CD28 Fab signal [6]: 2.3
YCDGHAPQYMQKCL [Phage-566] | 0.11 | 2.28 | – | – | –
YCDGHLPQYMWKCL (Clonal phage of the Peptide-87 library, tested as crude supernatant; not shown: pIII of the bacteriophage to which the peptide is fused) [Phage-559] | – | – | 2.29 | 0.12 | –
YCDGHSREYIAKCL (Clonal phage of the Peptide-87 library, tested as crude supernatant; not shown: pIII of the bacteriophage to which the peptide is fused) [Phage-558] | – | – | 2.29 | 0.08 | –
YCDGHAPEYMAKCL [Phage-549] | – | – | – | – | Phage binding ELISA, Anti-CD28 Fab signal in the presence of CD28 [5]: 0.09; Phage binding ELISA, Anti-CD28 Fab signal [6]: 2.3
YCDGHLPQYMMKCL (cysteine pairing not given here; also: displayed on phage by fusion to pIII, pIII and linker sequence not given here) [Phage-569] | 0.14 | 2.27 | – | – | –
YCDGHVPEYMAKCL (Clonal phage of the Peptide-87 library, tested as crude supernatant; not shown: pIII of the bacteriophage to which the peptide is fused) [Phage-560] | – | – | 2.29 | 0.07 | –
YCEGHLPIYLEKCM [Phage-567] | 0.1 | 2.27 | – | – | –
YCEGHTPEYMQKCL [Phage-568] | 0.07 | 2.27 | – | – | –
YCQGHLPEYMNKCL [Phage-581] | – | – | – | – | Anti-CD28 Fab (SEQ ID NOs: 696, 697) signal [7]: 2.24; Anti-CD28 Fab signal in the presence of CD28 [8]: 0.08
YCEGHSSEYMLKCL (Clonal phage of the Peptide-87 library, tested as crude supernatant; not shown: pIII of the bacteriophage to which the peptide is fused) [Phage-555] | – | – | 2.3 | 0.07 | –
YCEGHLPMYMEKCL (cysteine pairing not given here; also: displayed on phage by fusion to pIII, pIII and linker sequence not given here) [Phage-575] | 0.1 | 2.25 | – | – | –

Reference: patent US20260242478A1 (published 2026)
